Measurements as given in patent US20210032320A1.

Legend:
[1] = target: NKp44 isoform 1 (NKp44-1) on NK92-44-1 cells (Homo sapiens (Human)) (UniProt O95944); assay: cell-based or functional assay
[2] = target: NKp44 isoform 3 (NKp44-3) on NK92-44-3 cells (UniProt O95944); assay: cell-based or functional assay
[3] = target: NKp44 isoform 2 (NKp44-2) on NK92-44-2 cells (UniProt O95944); assay: cell-based or functional assay
[4] = target: endogenous cellular PCNA (cell lysates, permeabilised cells, FFPE tissue) (human) (UniProt P12004); assay: image stream of HeLa cells, similarity of the AF488 antibody stain to the 7AAD nuclear stain; 190 of 3950 cells
UniProt P12004, sequence (P12004 whole entry): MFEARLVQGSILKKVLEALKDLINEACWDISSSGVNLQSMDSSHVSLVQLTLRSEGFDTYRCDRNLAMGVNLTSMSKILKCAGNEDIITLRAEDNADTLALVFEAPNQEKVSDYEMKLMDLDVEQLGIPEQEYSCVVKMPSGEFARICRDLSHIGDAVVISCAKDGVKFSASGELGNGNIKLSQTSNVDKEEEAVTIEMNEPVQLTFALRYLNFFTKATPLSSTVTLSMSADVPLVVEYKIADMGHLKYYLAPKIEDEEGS

Substance | relative amount of F-actin accumulating at the immune synapse [1] | relative amount of F-actin accumulating at the immune synapse [2] | relative amount of F-actin accumulating at the immune synapse [3] | %Gated in the gate 'Cytoplasmic PCNA' [4]
PCNA over-expressed in HeLa target cells (from UniProt P12004 1-261) | -22.6% | 4.6% | 6.9% | –
commercial anti PCNA mAb clone PC10 (antibody) | – | – | – | 4.81%
